This passage reports Kd results from the FLAb antibody collection (doi:10.1101/2023.12.08.570889).

Substitutions are numbered along the chain they refer to.

For this assay, the target named is TSLP, Q969D9. Briefly: Kd (SPR).

B1: unnamed (protein)
chain 1: QMQLVESGGGVVQPGRSLRLSCAASGFTFRTYGMHWVRQAPGKGLEWVAVIWYDGSNKHYADSVKGRFTITRDNSKNTLNLQMNSLRAEDTAVYYCARAPRYDWLYEAFDVWGQGTMVTVSS
chain 2: SYVLTQPPSVSVAPGQTARITCGGNNLGSKSVHWYQQKPGQAPVLVVYDDSDRPSWIPERFSGSNSGNTATLTISRGEAGDEADYYCQVWDSSSDHVVFGGGTKLTVL
By Kd is commonly meant the equilibrium constant for the complex coming apart. Read a low Kd as a tighter complex. Take B1: the Kd is 83 nM.

B2: unnamed (protein)
chain 1: B1 chain 1 with W104D, L105R
chain 2: B1 chain 2
B2 gave a Kd of 241 nM.

B3: unnamed (protein)
chain 1: B1 chain 1 with W104E, L105Y, E107D
chain 2: B1 chain 2
For B3, the Kd worked out at 293 nM.

B4: unnamed (protein)
chain 1: B1 chain 1 with L105A
chain 2: B1 chain 2
Molecule B4 had a Kd of 404 nM.

B5: unnamed (protein)
chain 1: B1 chain 1 with W104Y, L105Y, Y106V
chain 2: B1 chain 2
B5 yielded an equilibrium dissociation constant (Kd) of 109 nM. This Kd lies about 3.7-fold lower than the previous one.

B6: unnamed (protein)
chain 1: B1 chain 1 with L105E
chain 2: B1 chain 2
On to B6, for which the Kd turned out to be 102 nM.

B7: unnamed (protein)
chain 1: B1 chain 1 with A99S, L105Y, Y106L
chain 2: B1 chain 2
B7 came in with an equilibrium dissociation constant (Kd) of 335 nM.

B8: unnamed (protein)
chain 1: B1 chain 1 with W104D, L105T
chain 2: B1 chain 2
B8 yielded a Kd of 86.2 nM.

B9: unnamed (protein)
chain 1: B1 chain 1 with A99S, W104E, L105Y, Y106W
chain 2: B1 chain 2
B9 yielded a Kd of 369 nM.

B10: unnamed (protein)
chain 1: B1 chain 1 with W104F, L105Y
chain 2: B1 chain 2
Take B10: the Kd was 116 nM. This Kd is about 3.2-fold lower than that of the molecule before.

B11: unnamed (protein)
chain 1: B1 chain 1 with A99S, W104Y, L105Y
chain 2: B1 chain 2
In turn, B11 registered an equilibrium dissociation constant (Kd) of 337 nM.

B12: unnamed (protein)
chain 1: B1 chain 1 with A99S, W104D, L105Y, Y106L
chain 2: B1 chain 2
B12 showed a Kd of 228 nM.

B13: unnamed (protein)
chain 1: B1 chain 1 with W104D
chain 2: B1 chain 2
In turn, B13 returned a Kd of 122 nM.

B14: unnamed (protein)
chain 1: B1 chain 1 with W104D, L105A
chain 2: B1 chain 2
B14 showed a Kd of 99.6 nM.

B15: unnamed (protein)
chain 1: B1 chain 1 with A99S, D103Y, W104D, L105Y, Y106W
chain 2: B1 chain 2
B15 registered a Kd of 72.3 nM. The Kd values of the last two molecules are within 1.5-fold of each other.

B16: unnamed (protein)
chain 1: B1 chain 1 with W104Y, L105E
chain 2: B1 chain 2
B16: the Kd amounted to 104 nM.

B17: unnamed (protein)
chain 1: B1 chain 1 with W104E, L105A
chain 2: B1 chain 2
The molecule B17 gave a Kd of 103 nM.

B18: unnamed (protein)
chain 1: B1 chain 1 with A99S, W104E, L105Y
chain 2: B1 chain 2
Regarding B18, the Kd was 242 nM.

B19: unnamed (protein)
chain 1: B1 chain 1 with W104D, L105Y, Y106L
chain 2: B1 chain 2
The molecule B19 registered a dissociation constant (Kd) of 99.9 nM.
